Data published in publication PMC8319299, “PALI1 facilitates DNA and nucleosome binding by PRC2 and triggers an allosteric activation of catalysis” (Nature Communications, 2020).
Where no end group is shown, it is not given here. [ ]: non-standard residue; d: D form. Lys(Me3) = C[N+](C)(C)CCCC[C@H](N)C(=O)O; Lys(Me2) = CN(C)CCCC[C@H](N)C(=O)O; Lys(Me) = CNCCCC[C@H](N)C(=O)O

molecular target: T1, EED (amino acids 40-441) (human, UniProt O75530-1 40-441); assay: fluorescence polarisation; fluorescence anisotropy displacement titration: 2-fold serial dilutions of unlabelled peptide with 10 µM EED and 40 nM 5-FAM labelled JARID2-K116me3 peptide; same buffer, 30 °C; Kd of the unlabelled peptide from a fit; conditions: both partners purified
T1 construct: pGEX-MHL vector, TEV-cleavable GST tag; source: E. coli BL21 (DE3), purified (Glutathione-agarose, TEV cleavage, heparin, gel filtration); not shown: GST, N-terminal, cleaved
T1 sequence (O75530 40-441): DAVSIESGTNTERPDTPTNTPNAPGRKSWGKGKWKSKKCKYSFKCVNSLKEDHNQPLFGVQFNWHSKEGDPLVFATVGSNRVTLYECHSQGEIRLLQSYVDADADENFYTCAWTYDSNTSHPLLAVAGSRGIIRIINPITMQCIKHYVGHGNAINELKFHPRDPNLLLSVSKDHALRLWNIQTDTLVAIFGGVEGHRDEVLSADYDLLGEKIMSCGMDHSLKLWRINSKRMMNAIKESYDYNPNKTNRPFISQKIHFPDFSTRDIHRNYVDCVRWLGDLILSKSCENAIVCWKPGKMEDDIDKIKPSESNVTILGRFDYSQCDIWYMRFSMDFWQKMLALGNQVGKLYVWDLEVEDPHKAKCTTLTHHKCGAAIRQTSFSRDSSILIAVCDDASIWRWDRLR

Binder | Kd [µM]
TKAAR[Lys(Me3)]SAPAT (also: trimethyllysine at K27, position not placed (two Lys in chain)) [H3K27me3 peptide] | 41.7
LK[Lys(Me)]FPG [PALI1-K1241me1 peptide] | 241

Second part, the binder after the results:

Kd [µM] | Binder
7.59 | LQ[Lys(Me3)]YA [PALI1-K1219me3 peptide]
7.49 | LK[Lys(Me3)]FPG [PALI1-K1241me3 peptide]
19 | LK[Lys(Me2)]FPG [PALI1-K1241me2 peptide]

molecular target: T1, EED (amino acids 40-441); assay: fluorescence polarisation; fluorescence anisotropy direct titration: various concentrations of EED (40-441) with 40 nM 5-FAM labelled JARID2-K116me3 peptide; 50 mM Tris-HCl pH 7.5, 100 mM KCl, 2 mM 2-mercaptoethanol, 0.1 mg/mL BSA, 0.05% NP-40, 2.5% glycerol; 30 °C, 30 min; conditions: both partners purified

Binder | Kd [µM]
RLQAQR[Lys(Me3)]FAQSQY (also: 5-FAM (5-carboxyfluorescein, single isomer) label, site not given here) [5-carboxyfluorescein (5-FAM) labelled JARID2-K116me3 peptide] | 8.07
